Measurements as given in the supplement of paper PMC12458215.
± gives the uncertainty stated by the source.

Tested on: HEK293T
Test: plasma membrane surface immunostaining intensity (anti-HA, deep receptor scanning) (arbitrary fluorescence units); higher = higher plasma membrane expression

Sequence | plasma membrane surface immunostaining intensity (GPCR class: A) | further results
MGGRVFLVFLAFCVWLTLPGAETQDSRGCARWCPQDSSCVNATACRCNPGFSSFSEIITTPMETCDDINECATLSKVSCGKFSDCWNTEGSYDCVCSPGYEPVSGAKTFKNESENTCQDVDECQQNPRLCKSYGTCVNTLGSYTCQCLPGFKLKPEDPKLCTDVNECTSGQNPCHSSTHCLNNVGSYQCRCRPGWQPIPGSPNGPNNTVCEDVDECSSGQHQCDSSTVCFNTVGSYSCRCRPGWKPRHGIPNNQKDTVCEDMTFSTWTPPPGVHSQTLSRFFDKVQDLGRDYKPGLANNTIQSILQALDELLEAPGDLETLPRLQQHCVASHLLDGLEDVLRGLSKNLSNGLLNFSYPAGTELSLEVQKQVDRSVTLRQNQAVMQLDWNQAQKSGDPGPSVVGLVSIPGMGKLLAEAPLVLEPEKQMLLHETHQGLLQDGSPILLSDVISAFLSNNDTQNLSSPVTFTFSHRSVIPRQKVLCVFWEHGQNGCGHWATTGCSTIGTRDTSTICRCTHLSSFAVLMAHYDVQEEDPVLTVITYMGLSVSLLCLLLAALTFLLCKAIQNTSTSLHLQLSLCLFLAHLLFLVAIDQTGHKVLCSIIAGTLHYLYLATLTWMLLEALYLFLTARNLTVVNYSSINRFMKKLMFPVGYGVPAVTVAISAASRPHLYGTPSRCWLQPEKGFIWGFLGPVCAIFSVNLVLFLVTLWILKNRLSSLNSEVSTLRNTRMLAFKATAQLFILGCTWCLGILQVGPAARVMAYLFTIINSLQGVFIFLVYCLLSQQVREQYGKWSKGIRKLKTESEMHTLSSSAKADTSKPSTVN [ADGRE2] |  | plasma membrane surface immunostaining intensity (GPCR class: B): 6310 ± 78
MSGDNSSSLTPGFFILNGVPGLEATHIWISLPFCFMYIIAVVGNCGLICLISHEEALHRPMYYFLALLSFTDVTLCTTMVPNMLCIFWFNLKEIDFNACLAQMFFVHMLTGMESGVLMLMALDRYVAICYPLRYATILTNPVIAKAGLATFLRNVMLIIPFTLLTKRLPYCRGNFIPHTYCDHMSVAKVSCGNFKVNAIYGLMVALLIGVFDICCISVSYTMILQAVMSLSSADARHKAFSTCTSHMCSIVITYVAAFFTFFTHRFVGHNIPNHIHIIVANLYLLLPPTMNPIVYGVKTKQIQEGVIKFLLGDKVSFTYDK [OR52N2] |  | plasma membrane surface immunostaining intensity (GPCR class: A (Olfactory)): 157 ± 54
MASFSAETNSTDLLSQPWNEPPVILSMVILSLTFLLGLPGNGLVLWVAGLKMQRTVNTIWFLHLTLADLLCCLSLPFSLAHLALQGQWPYGRFLCKLIPSIIVLNMFASVFLLTAISLDRCLVVFKPIWCQNHRNVGMACSICGCIWVVAFVMCIPVFVYREIFTTDNHNRCGYKFGLSSSLDYPDFYGDPLENRSLENIVQPPGEMNDRLDPSSFQTNDHPWTVPTVFQPQTFQRPSADSLPRGSARLTSQNLYSNVFKPADVVSPKIPSGFPIEDHETSPLDNSDAFLSTHLKLFPSASSNSFYESELPQGFQDYYNLGQFTDDDQVPTPLVAITITRLVVGFLLPSVIMIACYSFIVFRMQRGRFAKSQSKTFRVAVVVVAVFLVCWTPYHIFGVLSLLTDPETPLGKTLMSWDHVCIALASANSCFNPFLYALLGKDFRKKARQSIQGILEAAFSEELTRSTHCPSNNVISERNSTTV [C3AR1] | 327 ± 41 | 
MDLPPQLSFGLYVAAFALGFPLNVLAIRGATAHARLRLTPSLVYALNLGCSDLLLTVSLPLKAVEALASGAWPLPASLCPVFAVAHFFPLYAGGGFLAALSAGRYLGAAFPLGYQAFRRPCYSWGVCAAIWALVLCHLGLVFGLEAPGGWLDHSNTSLGINTPVNGSPVCLEAWDPASAGPARFSLSLLLFFLPLAITAFCYVGCLRALARSGLTHRRKLRAAWVAGGALLTLLLCVGPYNASNVASFLYPNLGGSWRKLGLITGAWSVVLNPLVTGYLGRGPGLKTVCAARTQGGKSQK [FFAR1] | 265 ± 37 | 
MSPCGPLNLSLAGEATTCAAPWVPNTSAVPPSGASPALPIFSMTLGAVSNLLALALLAQAAGRLRRRRSAATFLLFVASLLATDLAGHVIPGALVLRLYTAGRAPAGGACHFLGGCMVFFGLCPLLLGCGMAVERCVGVTRPLLHAARVSVARARLALAAVAAVALAVALLPLARVGRYELQYPGTWCFIGLGPPGGWRQALLAGLFASLGLVALLAALVCNTLSGLALLRARWRRRSRRPPPASGPDSRRRWGAHGPRSASASSASSIASASTFFGGSRSSGSARRARAHDVEMVGQLVGIMVVSCICWSPMLVLVALAVGGWSSTSLQRPLFLAVRLASWNQILDPWVYILLRQAVLRQLLRLLPPRAGAKGGPAGLGLTPSAWEASSLRSSRHSGLSHF [PTGER1] | 1460 ± 250 | 
MAEMNLTLVTEFLLIAFTEYPEWALPLFLLFLFMYLITVLGNLEMIILILMDHQLHAPMYFLLSHLAFMDVCYSSITVPQMLAVLLEHGAALSYTRCAAQFFLFTFFGSIDCYLLALMAYDRYLAVCQPLLYVTILTQQARLSLVAGAYVAGLISALVRTVSAFTLSFCGTSEIDFIFCDLPPLLKLTCGESYTQEVLIIMFAIFVIPASMVVILVSYLFIIVAIMGIPAGSQAKTFSTCTSHLTAVSLFFGTLIFMYLRGNSDQSSEKNRVVSVLYTEVIPMLNPLIYSLRNKEVKEALRKILNRAKLS [OR9Q1] |  | plasma membrane surface immunostaining intensity (GPCR class: A (Olfactory)): 422 ± 160
MELRNSTLGSGFILVGILNDSGSPELLYATFTILYMLALTSNGLLLLAITIEARLHMPMYLLLGQLSLMDLLFTSVVTPKALADFLRRENTISFGGCALQMFLALTMGSAEDLLLAFMAYDRYVAICHPLKYMTLMSPRVCWIMVATSWILASLIAIGHTMYTMHLPFCVSWEIRHLLCEIPPLLKLACADTSRYELIIYVTGVTFLLLPISAIVASYTLVLFTVLRMPSNEGRKKALVTCSSHLIVVGMFYGAATFMYVLPSSFHSPKQDNIISVFYTIVTPALNPLIYSLRNKEVMRALRRVLGKYILLAHSTL [OR2AG2] |  | plasma membrane surface immunostaining intensity (GPCR class: A (Olfactory)): 164 ± 69
MKSPFYRCQNTTSVEKGNSAVMGGVLFSTGLLGNLLALGLLARSGLGWCSRRPLRPLPSVFYMLVCGLTVTDLLGKCLLSPVVLAAYAQNRSLRVLAPALDNSLCQAFAFFMSFFGLSSTLQLLAMALECWLSLGHPFFYRRHITLRLGALVAPVVSAFSLAFCALPFMGFGKFVQYCPGTWCFIQMVHEEGSLSVLGYSVLYSSLMALLVLATVLCNLGAMRNLYAMHRRLQRHPRSCTRDCAEPRADGREASPQPLEELDHLLLLALMTVLFTMCSLPVIYRAYYGAFKDVKEKNRTSEEAEDLRALRFLSVISIVDPWIFIIFRSPVFRIFFHKIFIRPLRYRSRCSNSTNMESSL [PTGDR] | 6000 ± 81 | 
MLAAAFADSNSSSMNVSFAHLHFAGGYLPSDSQDWRTIIPALLVAVCLVGFVGNLCVIGILLHNAWKGKPSMIHSLILNLSLADLSLLLFSAPIRATAYSKSVWDLGWFVCKSSDWFIHTCMAAKSLTIVVVAKVCFMYASDPAKQVSIHNYTIWSVLVAIWTVASLLPLPEWFFSTIRHHEGVEMCLVDVPAVAEEFMSMFGKLYPLLAFGLPLFFASFYFWRAYDQCKKRGTKTQNLRNQIRSKQVTVMLLSIAIISALLWLPEWVAWLWVWHLKAAGPAPPQGFIALSQVLMFSISSANPLIFLVMSEEFREGLKGVWKWMITKKPPTVSESQETPAGNSEGLPDKVPSPESPASIPEKEKPSSPSSGKGKTEKAEIPILPDVEQFWHERDTVPSVQDNDPIPWEHEDQETGEGVK [GPR151] | 5990 ± 230 | 
MAEHDYHEDYGFSSFNDSSQEEHQDFLQFSKVFLPCMYLVVFVCGLVGNSLVLVISIFYHKLQSLTDVFLVNLPLADLVFVCTLPFWAYAGIHEWVFGQVMCKSLLGIYTINFYTSMLILTCITVDRFIVVVKATKAYNQQAKRMTWGKVTSLLIWVISLLVSLPQIIYGNVFNLDKLICGYHDEAISTVVLATQMTLGFFLPLLTMIVCYSVIIKTLLHAGGFQKHRSLKIIFLVMAVFLLTQMPFNLMKFIRSTHWEYYAMTSFHYTIMVTEAIAYLRACLNPVLYAFVSLKFRKNFWKLVKDIGCLPYLGVSHQWKSSEDNSKTFSASHNVEATSMFQL [CXCR6] | 967 ± 65 | 
MLSAGLGLLMLVAVVEFLIGLIGNGSLVVWSFREWIRKFNWSSYNLIILGLAGCRFLLQWLIILDLSLFPLFQSSRWLRYLSIFWVLVSQASLWFATFLSVFYCKKITTFDRPAYLWLKQRAYNLSLWCLLGYFIINLLLTVQIGLTFYHPPQGNSSIRYPFESWQYLYAFQLNSGSYLPLVVFLVSSGMLIVSLYTHHKKMKVHSAGRRDVRAKAHITALKSLGCFLLLHLVYIMASPFSITSKTYPPDLTSVFIWETLMAAYPSLHSLILIMGIPRVKQTCQKILWKTVCARRCWGP [TAS2R5] |  | plasma membrane surface immunostaining intensity (GPCR class: Taste): 123 ± 18
